Article PMC11243334, “Synthesis and Evaluation of the First ^68Ga-Labeled C-Terminal Hydroxamate-Derived Gastrin-Releasing Peptide Receptor-Targeted Tracers for Cancer Imaging with Positron Emission Tomography” (Molecules, 2024)
Read-outs that look alike come from different tables or passages of the source.

How the values were obtained:
physchem = settings: n-octanol/DPBS, pH 7.4
Experimental: LogD7.4 values of [^68Ga]Ga-LW02075, [^68Ga]Ga-LW02050, and [^68Ga]Ga-SB3 were measured via the shake flask method. An aliquot of the ^68Ga-labeled tracer (~1.85 MBq) was added to a 15 mL falcon tube containing 3 mL of n-octanol and 3 mL of DPBS (pH 7.4) followed by 1 min of vortex (n = 3). After that, the mixture was centrifuged at 5000 rpm for 10 min, and samples of the n-octanol (1 mL) and buffer (1 mL) layers were collected and counted on a Perkin Elmer (Waltham, MA, USA) Wizard2 2480 automatic gamma counter. The LogD7.4 values of [^68Ga]Ga-LW02075, [^68Ga]Ga-LW02050, and [^68Ga]Ga-SB3 were calculated following the equation: LogD7.4 = log10[(counts in the n-octanol phase)/(counts in the buffer phase)].

[1] = Ex vivo biodistribution in PC-3 tumor-bearing mice; settings: male, mouse, iv, total radioactivity, 1 h post injection, mean ± SD, n = 4; for tissue uptake at 1 h: NOD.Cg-Rag1^tm1Mom Il2rg^tm1Wjl/SzJ (NRG); for tissue to tissue ratio at 1 h: NOD.Cg-Rag1tm1Mom Il2rgtm1Wjl/SzJ (NRG)
Experimental: Biodistribution studies were conducted for ^68Ga-labeled SB3, LW02075 and LW02050 in PC-3 tumor-bearing mice (n = 4).
(§1) Imaging and biodistribution studies were performed on male NOD.Cg-Rag1^tm1Mom Il2rg^tm1Wjl/SzJ (NRG) mice following previously published procedures. The experiments were conducted following the guidelines established by the Canadian Council on Animal Care and approved by Animal Ethics Committee of the University of British Columbia. The mice were sedated (2.5% isoflurane in oxygen) and injected with 5 × 10^6 PC-3 cells (100 µL; 1:1 PBS/Matrigel) subcutaneously behind the left shoulder. The tumor-bearing mice were used for PET/CT imaging and biodistribution studies when the tumor grew to 5–8 mm in diameter.
For biodistribution studies, the mice were injected with the radiotracer (~2–4 MBq), as described above. Blocking of [^68Ga]Ga-LW02075 and [^68Ga]Ga-LW02050 was conducted by co-injection with 100 μg nonradioactive Ga-LW02075 and Ga-LW02050, respectively, through a lateral caudal tail vein under anaesthesia. At 1 h post injection, the mice were sedated and euthanized by CO2 inhalation. Blood was collected via cardiac puncture, and organs/tissues of interest were collected, weighed, and counted on a Perkin Elmer (Waltham, MA, USA) Wizard2 2480 automatic gamma counter.

PC-3 tumor xenografts = experiment: PET/CT imaging in mice bearing PC-3 tumor xenografts; assay type: in vivo; settings: 1 h post injection, mice
Experimental: as §1
PET/CT imaging experiments were performed on a Siemens (Knoxville, TN, USA) Inveon micro PET/CT scanner. Each tumor-bearing mouse was injected with ~3–6 MBq of ^68Ga-labeled tracer through a lateral caudal tail vein under anaesthesia. At around 50 min post injection, a 10 min CT scan was obtained first for localization and attenuation correction after segmentation for reconstructing the PET image, followed by a 10 min static PET scan.

GRPR [2] = target: T1, GRPR (Homo sapiens, UniProt P30550); experiment: In vitro competition binding assay, displacement of [125I-Tyr4]Bombesin from PC-3 cells; settings: GRPR-expressing PC-3 cells, 0.01 nM [125I-Tyr4]Bombesin, 1 h at 37 °C, ligand 10 μM to 1 pM, n = 3
T1 construct: host or cells: PC-3 human prostate adenocarcinoma cells
T1 sequence (P30550 whole entry): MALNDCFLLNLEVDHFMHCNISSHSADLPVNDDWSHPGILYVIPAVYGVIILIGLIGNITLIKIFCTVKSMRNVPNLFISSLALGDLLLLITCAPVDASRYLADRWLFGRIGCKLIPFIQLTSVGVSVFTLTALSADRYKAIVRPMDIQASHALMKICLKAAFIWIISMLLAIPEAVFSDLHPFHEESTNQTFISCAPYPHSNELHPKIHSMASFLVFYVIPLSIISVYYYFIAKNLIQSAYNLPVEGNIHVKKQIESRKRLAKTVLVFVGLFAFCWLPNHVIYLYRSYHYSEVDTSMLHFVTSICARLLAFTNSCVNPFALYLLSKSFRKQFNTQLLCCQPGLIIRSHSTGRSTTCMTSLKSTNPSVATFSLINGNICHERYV
Experimental: The Ki values of Ga-LW02075, Ga-LW02050, and Ga-SB3 were measured using GRPR-expressing PC-3 prostate cancer cells via a cell-based competition binding assay. Ga-SB3, Ga-LW02075, and Ga-LW02050 inhibited the binding of [^125I-Tyr^4]Bombesin towards PC-3 cells in a dose-dependent manner (Figure 2).
Inhibition constants (Ki) of Ga-SB3, Ga-LW02075, and Ga-LW02050 toward GRPR were measured by in vitro competition binding assay following previously published procedures. The assays were conducted in triplicate with varied concentrations (10 μM to 1 pM) of Ga-SB3, Ga-LW02075, and Ga-LW02050. Briefly, 2 × 10^5 cells/well of PC-3 cells were seeded in 24-well poly-D-lysine plates 24 h prior to the assay. The growth medium was replaced with 400 μL of reaction medium (RPMI 1640 containing 2 mg/mL bovine serum albumin (BSA) and 20 mM HEPES), followed by 1 h incubation at 37 °C. The tested ligands in 50 μL reaction medium and 0.01 nM [^125I-Tyr^4]Bombesin in 50 μL reaction medium were added into the wells, and then incubated at 37 °C with moderate agitation for 1 h. […] Data analysis was performed using nonlinear regression with GraphPad (San Diego, CA, USA) Prism 10 software (Version 10.1.1).

GRPR [3] = settings: ref 14 (Devin et al.); cited from earlier work
Source text: Most of the reported GRPR-targeted agonist and antagonist sequences contain a C-terminal amide. […] To the best of our knowledge, no GRPR-targeted radioligands containing a C-terminal hydroxamate have ever been reported. Therefore, the goal of this study was to evaluate the potential of C-terminal hydroxamate- ...

GRPR [4] = target: T1, GRPR; experiment: Fluorometric intracellular calcium release assay in PC-3 cells; assay type: cell-based; settings: for Ca2+ mobilization, relative fluorescence units (RFUs = max − min): 50 nM ligand, FLIPR Calcium 6, signal acquired 2 min, n = 3
Experimental: The antagonist/agonist characteristics of Ga-LW02075 and Ga-LW02050 were determined following previously published procedures. A 96-well clear-bottomed black plate was seeded with 5 × 10^4 PC-3 cells/well in 100 μL growth media 24 h prior to the assay. A calcium-sensitive dye (FLIPR Calcium 6 assay kit from Molecular Devices, San Jose, CA, USA) dissolved in the loading buffer (100 μL/well) was added into the plate followed by 1 h incubation at 37 °C. Then, the plate was transferred into a FlexStation 3 microplate reader (Molecular Devices, San Jose, CA, USA) to record the fluorescent signals. Ga-complexed SB3 derivatives (50 nM), [D-Phe^6,Leu-NHEt^13,des-Met^14]Bombesin(6-14) (50 nM, antagonist control), bombesin (50 nM, agonist control), adenosine triphosphate (ATP, 50 nM, positive control), or DPBS (blank control) were added. The fluorescent signals were acquired for 2 min (λEx = 485 nm; λEm = 525 nm; n = 3). The relative fluorescent units (RFUs = max − min) were calculated to determine the agonistic/antagonistic characteristics of the tested ligands.

CCNC(=O)[C@H](CC(C)C)NC(=O)[C@H](Cc1c[nH]cn1)NC(=O)CNC(=O)[C@@H](NC(=O)[C@H](C)NC(=O)[C@H](Cc1c[nH]c2ccccc12)NC(=O)[C@H](CCC(N)=O)NC(=O)[C@@H](Cc1ccccc1)NC(=O)COCC(=O)Nc1ccc(CNC(=O)CN2CCN(CC(=O)O)CCN(CC(=O)O)CCN(CC(=O)O)CC2)cc1)C(C)C [[^68Ga]Ga-SB3, [^68Ga]Ga-DOTA-pABzA-DIG-D-Phe-Gln-Trp-Ala-Val-Gly-His-Leu-NHEt, metal not drawn, reference compound]
logD (physchem): -2.47 ± 0.09
tissue uptake at 1 h ([1]; PC-3 tumor, read-out: PC-3 tumor uptake): 6.98 ± 1.36 %ID/g
tissue uptake at 1 h ([1]; adrenal glands, read-out: Adrenal glands uptake): 2.07 ± 0.66 %ID/g
tissue uptake at 1 h ([1]; blood, read-out: Blood uptake): 0.5 ± 0.09 %ID/g
tissue uptake at 1 h ([1]; bone, read-out: Bone uptake): 0.12 ± 0.01 %ID/g
tissue uptake at 1 h ([1]; brain, read-out: Brain uptake): 0.04 ± 0.01 %ID/g
tissue uptake at 1 h ([1]; fat, read-out: Fat uptake): 0.05 ± 0.01 %ID/g
tissue uptake at 1 h ([1]; heart, read-out: Heart uptake): 0.16 ± 0.02 %ID/g
tissue uptake at 1 h ([1]; kidneys, read-out: Kidneys uptake): 2.26 ± 0.26 %ID/g
tissue uptake at 1 h ([1]; large intestine, read-out: Large intestine uptake): 2.2 ± 0.89 %ID/g
tissue uptake at 1 h ([1]; liver, read-out: Liver uptake): 2.1 ± 0.45 %ID/g
tissue uptake at 1 h ([1]; lungs, read-out: Lungs uptake): 1.18 ± 0.23 %ID/g
tissue uptake at 1 h ([1]; muscle, read-out: Muscle uptake): 0.18 ± 0.1 %ID/g
tissue uptake at 1 h ([1]; pancreas, read-out: Pancreas uptake): 37.3 ± 6.9 %ID/g
tissue uptake at 1 h ([1]; small intestine, read-out: Small intestine uptake): 6.03 ± 1.07 %ID/g
tissue uptake at 1 h ([1]; spleen, read-out: Spleen uptake): 0.33 ± 0.17 %ID/g
tissue uptake at 1 h ([1]; stomach, read-out: Stomach uptake): 1.42 ± 0.57 %ID/g
tissue uptake at 1 h ([1]; testes, read-out: Testes uptake): 0.13 ± 0.01 %ID/g
tissue to tissue ratio at 1 h ([1]; tumor and bone, read-out: Tumor/bone uptake ratio): 61 ± 15.5
tissue to tissue ratio at 1 h ([1]; tumor and kidney, read-out: Tumor/kidney uptake ratio): 3.09 ± 0.51
tissue to tissue ratio at 1 h ([1]; tumor and muscle, read-out: Tumor/muscle uptake ratio): 48.2 ± 24.9
tissue to tissue ratio at 1 h ([1]; tumor and pancreas, read-out: Tumor/pancreas uptake ratio): 0.19 ± 0.03
tissue to tissue ratio at 1 h ([1]; tumor and whole blood, read-out: Tumor/blood uptake ratio): 14.4 ± 3.88
Excretion pathway in PET images (PC-3 tumor xenografts): excreted primarily through the renal pathway
Pancreas in PET images (PC-3 tumor xenografts): high pancreas uptake

Ga-DOTA-pABzA-DIG-D-Phe-Gln-Trp-Ala-Val-Gly-His-Leu-NHEt [Ga-SB3, reference compound]
Ki (GRPR [2]): 1.2 ± 0.31 nM

D-Phe-Gln-Trp-Ala-Val-Gly-His-Leu-NHOH [C-terminal hydroxamate-derived GRPR-targeted antagonist reported by Devin et al]
Ki (GRPR [3]): 5.8 nM

[D-Phe^6,Leu-NHEt^13,des-Met^14]Bombesin(6-14)
Ca2+ mobilization, relative fluorescence units (RFUs = max − min) (GRPR [4]): 47.2 ± 6.61 RFUs

Ga-DOTA-Pip-D-Phe-Gln-Trp-Ala-Val-Gly-His-Leu-NHOH [Ga-LW02050]
Ki (GRPR [2]): 8.53 ± 1.52 nM
Ca2+ mobilization, relative fluorescence units (RFUs = max − min) (GRPR [4]): 25.8 ± 7.95 RFUs
Agonist/antagonist characteristics (GRPR [4]; 50 nM, calcium release assay): antagonist

Nc1ncnc2c1ncn2[C@@H]1O[C@H](COP(=O)(O)OP(=O)(O)OP(=O)(O)O)[C@@H](O)[C@H]1O [ATP, adenosine triphosphate]
Ca2+ mobilization, relative fluorescence units (RFUs = max − min) (GRPR [4]): 271 ± 24.4 RFUs

bombesin
Ca2+ mobilization, relative fluorescence units (RFUs = max − min) (GRPR [4]): 371 ± 65.0 RFUs
